According to patent US7001892B1, “Pharmaceutical materials and methods for their preparation and use” (Purdue Research Foundation, priority 1999, dated 2006):
Read-outs that look alike come from different tables or passages of the source.

Experiments:
[1] = cited from earlier work
[2] = cited from earlier work; for storage time after reconstitution: reconstituted with 0.9% benzyl alcohol
[3] = Level of inclusion of guest protein/peptide in host crystals (labeled-insulin/lactose crystals dissolved in PBS and analyzed by HPLC); format: physicochemical; details: rhodamine-labeled glucagon in α-lactose monohydrate crystals
Method: To investigate the potential for incorporation of a biopharmaceutical into crystals of biocompatible excipients, studies were conducted using rhodamine-labeled glandular glucagon and lactose. As in the previous studies, the rhodamine label was used to facilitate the visualization of glucagon in the host crystals. Typical crystal growth conditions involved the addition of 5 volumes of a supersaturated solution of deionized α-lactose monohydrate to 1 volume of an approximately 1.5 mg/mL (approximately 300 to 400 μmole) of rhodamine-labeled glucagon in purified water. The mixed solution was allowed to stand at room temperature in a 24-well plate.

[4] = vs. 2% in placebo; cited from earlier work

In the case of Actimmune, the activity ([1]; interferon gamma-1b) is given as “dimeric form in solution, activity or 30 million units/mg”.

In the case of Activase, the “time diluted solution can be held” value ([2]; 1 mg/mL solution diluted 1:1 with 0.9% NaCl or D5W, room temperature) is given as 8 h, the “effect of preservatives on the product” value ([2]; preserved water or addition of preservatives) is given as “precipitation” and the activity ([1]; T-PA glycoprotein) is given as 580,000 IU/mg.

In the case of Leukine, the “storage time after reconstitution” value ([2]; refrigerated temperatures) is listed as less than 20 days, the “reconstituted solution stable for” value ([2]; reconstituted with sterile water, refrigerated temperatures) is listed as less than 6 h and the specific activity ([1]; GM-CSF) is listed as “Additional Information: Specific activity is 5 × 10^7 colony forming units per mg protein. Sargramostim”.

In the case of Protropin, the “storage time after reconstitution” value ([2]; refrigerated temperatures) is given as “stored at refrigerated temperature, the reconstituted product is good for 14 days at refrigerated”.

In the case of “rhodamine-labeled glucagon: glandular glucagon carrying a rhodamine label to visualize it in the host crystals”, the level of inclusion [3] is reported as “approximately 0.1 % (w/w)”.

B1: Actimmune (protein, UniProt P01579 24-161, looked up)
Interferon gamma: QDPYVKEAENLKKYFNAGHSDVADNGTLFLGILKNWKEESDRKIMQSQIVSFYFKLFKNFKDDQSIQKSVETIKEDMNVKFFNSNKKKRDDFEKLTNYSVTDLNVQRKAIHELIQVMAELSPAAKTGKRKRSQMLFRG
modifications: interferon gamma-1b
For B1, the injection site irritation [4] is given as “Additional Information: 14% injection site irritation vs. 2% in placebo. Cost $140 for 50 μg”.
